Consider 1 molecule from US20240317859A1 (published 2024).

Assay [1] deals with Fc gamma RIIIA/CD16a, CF (FcγRIIIA(V158)) (R&D Systems). Nature of the assay: SPR. A general note: SPR reads the build-up and loss of mass on a sensor chip optically.
The target in assay [2] is T1, FcγRIIB/C (CD32b/c) (FcγRIIB) (R&D Systems) (UniProt P31994 46-217).
T1 chain: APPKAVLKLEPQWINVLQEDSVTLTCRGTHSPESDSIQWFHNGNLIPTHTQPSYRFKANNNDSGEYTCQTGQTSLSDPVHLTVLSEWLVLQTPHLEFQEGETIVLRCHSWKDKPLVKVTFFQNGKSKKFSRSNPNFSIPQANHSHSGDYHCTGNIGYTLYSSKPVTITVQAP
Briefly: SPR.

Fc gamma RIIIA/CD16a, CF (FcγRIIIA(V158)) (R&D Systems), sequence (chain, as listed by the source): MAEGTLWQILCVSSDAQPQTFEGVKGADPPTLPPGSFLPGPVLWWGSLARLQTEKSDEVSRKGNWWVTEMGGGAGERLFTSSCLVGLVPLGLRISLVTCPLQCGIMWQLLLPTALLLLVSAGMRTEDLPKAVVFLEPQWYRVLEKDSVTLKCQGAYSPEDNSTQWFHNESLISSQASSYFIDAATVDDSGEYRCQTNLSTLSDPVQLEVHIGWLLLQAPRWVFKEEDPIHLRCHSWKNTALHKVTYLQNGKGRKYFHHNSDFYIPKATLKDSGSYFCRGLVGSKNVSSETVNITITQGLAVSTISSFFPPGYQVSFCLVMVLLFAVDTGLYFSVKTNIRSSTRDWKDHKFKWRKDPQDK

B1: X3-KSI HM268-K8 (antibody)
chain 1: QVQLVQSGPEVKKPGASVKVVCKTSGYTFTSYYIQWLKQRPGQGLEWIGWIYFGDASTKYNEKFKGRVTMTADKSTSTAYMELRSLRSDDTAVYYCASYYGSYFDYWGQGTTVTVSSASTKGPSVFPLAPSSKSTSGGTAALGCLVKDYFPEPVTVSWNSGALTSGVHTFPAVLQSSGLYSLSSVVTVPSSSLGTQTYICNVNHKPSNTKVDKKVEPKSCDKTHTCPPCPAPELLGGPDVFLFPPKPKDTLMISRTPEVTCVVVDVGDEDPEVKFNWYVDGVEVHNAKTKPREEQYNSTYRVVSVLTVLHQDWLNGKEYKCAVSNKALPAPEEKTISKAKGQPREPQVYTLPPSRDELTKNQVSLTCLVKGFYPSDIAVEWESNGQPENNYKTTPPVLDSDGSFFLYSKLTVDKSRWQQGNVFSCSVMHEALHNHYTQKSLSLSPGK
chain 2: DIQMTQSPSSLSASVGDRVTITCRASQDISNYLNWYQQKPDGTVKLLIYSTSRLHSGVPSRFSGSGSGTDYTLTISSLQPEDFATYYCQQGSTLPFTFGQGTKLEIKRTVAAPSVFIFPPSDEQLKSGTASVVCLLNNFYPREAKVQWKVDNALQSGNSQESVTEQDSKDSTYSLSSTLTLSKADYEKHKVYACEVTHQGLSSPVTKSFNRGEC
As to B1, the figures for the Kd in assay [1] and in assay [2] were 265 nM and 1640 nM, respectively.
